Literature values in patent publication US8217152B2, “Process for the purification of IL-18 binding protein” (Ares Trading S.A., priority 2005, dated 2012).

How the values were obtained:
[1] = biological target: T1, IL-18 (Homo sapiens, UniProt Q14116); conditions: Kim et al. 2000; read-out: dissociation constant (Kd) for IL-18
T1 sequence (Q14116 37-193): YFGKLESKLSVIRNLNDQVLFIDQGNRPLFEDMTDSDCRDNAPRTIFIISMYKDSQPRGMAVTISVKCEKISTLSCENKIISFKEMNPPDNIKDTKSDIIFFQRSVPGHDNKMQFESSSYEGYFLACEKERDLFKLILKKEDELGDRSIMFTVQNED

[2] = test system: IL-18 induction of IFN-γ; conditions: in vitro
[3] = test system: IL-18 activation of NF-κB; conditions: in vitro
[4] = test system: induction of IFN-γ; conditions: mice injected with LPS

B1: IL-18BP: naturally occurring soluble protein that binds IL-18 (protein, UniProt O95998 31-194, looked up)
Interleukin-18-binding protein: TPVSQTTTAATASVRSTKDPCPSQPPVFPAAKQCPALEVTWPEVEVPLNGTLSLSCVACSRFPNFSILYWLGNGSFIEHLPGRLWEGSTSRERGSTGTQLCKALVLEQLTPALHSTNFSCVLVDPEQVVQRHVVLAQLWAGLRATLPPTQEALPSSHSSPQQQG
In the case of B1, the Kd [1] is listed as 0.4 nM, the “effect on IL-18 induction of IFN-γ” value [2] is listed as “abolishes” and the “effect on IL-18 activation of NF-κB” value [3] is listed as “abolishes”. For the same molecule, the “effect on induction of IFN-γ” value [4] was “inhibits”.
